Assay results: article PMC6804253, “Predicting and Experimentally Validating Hot-Spot Residues at Protein–Protein Interfaces” (ACS Chemical Biology, 2019)
Like-named read-outs stand apart in the source and are kept apart here.

B1: 1EMV LA33A (protein, UniProt P13479 1-86, looked up, variant L33A)
Colicin-E9 immunity protein: MELKHSISDYTEAEFLQLVTTICNADTSSEEEAVKLVTHFEEMTEHPSGSDLIYYPKEGDDDSPSGIVNTVKQWRAANGKSGFKQG
B2: 1EMV VA34A (protein, UniProt P13479 1-86, looked up, variant V34A)
Colicin-E9 immunity protein: MELKHSISDYTEAEFLQLVTTICNADTSSEEELAKLVTHFEEMTEHPSGSDLIYYPKEGDDDSPSGIVNTVKQWRAANGKSGFKQG
B3: 1EMV YA54A (protein, UniProt P13479 1-86, looked up, variant Y54A)
Colicin-E9 immunity protein: MELKHSISDYTEAEFLQLVTTICNADTSSEEELVKLVTHFEEMTEHPSGSDLIAYPKEGDDDSPSGIVNTVKQWRAANGKSGFKQG
B4: 1EMV YA55A (protein, UniProt P13479 1-86, looked up, variant Y55A)
Colicin-E9 immunity protein: MELKHSISDYTEAEFLQLVTTICNADTSSEEELVKLVTHFEEMTEHPSGSDLIYAPKEGDDDSPSGIVNTVKQWRAANGKSGFKQG
B5: 1EMV VA68A (protein, UniProt P13479 1-86, looked up, variant V68A)
Colicin-E9 immunity protein: MELKHSISDYTEAEFLQLVTTICNADTSSEEELVKLVTHFEEMTEHPSGSDLIYYPKEGDDDSPSGIANTVKQWRAANGKSGFKQG
B6: 1EMV IA53A (protein, UniProt P13479 1-86, looked up, variant I53A)
Colicin-E9 immunity protein: MELKHSISDYTEAEFLQLVTTICNADTSSEEELVKLVTHFEEMTEHPSGSDLAYYPKEGDDDSPSGIVNTVKQWRAANGKSGFKQG
B7: 1IAR IA5A (protein, UniProt P05112 25-153, looked up, variant I5A)
Interleukin-4: HKCDATLQEIIKTLNSLTEQKTLCTELTVTDIFAASKNTTEKETFCRAATVLRQFYSHHEKDTRCLGATAQQFHRHKQLIRFLKRLDRNLWGLAGLNSCPVKEANQSTLENFLERLKTIMREKYSKCSS
B8: 1DFJ WI257A (protein, UniProt P10775 1-456, looked up, variant W257A)
Ribonuclease inhibitor: MNLDIHCEQLSDARWTELLPLLQQYEVVRLDDCGLTEEHCKDIGSALRANPSLTELCLRTNELGDAGVHLVLQGLQSPTCKIQKLSLQNCSLTEAGCGVLPSTLRSLPTLRELHLSDNPLGDAGLRLLCEGLLDPQCHLEKLQLEYCRLTAASCEPLASVLRATRALKELTVSNNDIGEAGARVLGQGLADSACQLETLRLENCGLTPANCKDLCGIVASQASLRELDLGSNGLGDAGIAELCPGLLSPASRLKTLALWECDITASGCRDLCRVLQAKETLKELSLAGNKLGDEGARLLCESLLQPGCQLESLWVKSCSLTAACCQHVSLMLTQNKHLLELQLSSNKLGDSGIQELCQALSQPGTTLRVLCLGDCEVTNSGCSSLASLLLANRSLRELDLSNNCVGDPGVLQLLGSLEQPGCALEQLVLYDTYWTEEVEDRLQALEGSKPGLRVIS
B9: 1DFJ II455A (protein, UniProt P10775 1-456, looked up, variant I455A)
Ribonuclease inhibitor: MNLDIHCEQLSDARWTELLPLLQQYEVVRLDDCGLTEEHCKDIGSALRANPSLTELCLRTNELGDAGVHLVLQGLQSPTCKIQKLSLQNCSLTEAGCGVLPSTLRSLPTLRELHLSDNPLGDAGLRLLCEGLLDPQCHLEKLQLEYCRLTAASCEPLASVLRATRALKELTVSNNDIGEAGARVLGQGLADSACQLETLRLENCGLTPANCKDLCGIVASQASLRELDLGSNGLGDAGIAELCPGLLSPASRLKTLWLWECDITASGCRDLCRVLQAKETLKELSLAGNKLGDEGARLLCESLLQPGCQLESLWVKSCSLTAACCQHVSLMLTQNKHLLELQLSSNKLGDSGIQELCQALSQPGTTLRVLCLGDCEVTNSGCSSLASLLLANRSLRELDLSNNCVGDPGVLQLLGSLEQPGCALEQLVLYDTYWTEEVEDRLQALEGSKPGLRVAS
B10: 1DFJ YI430A (protein, UniProt P10775 1-456, looked up, variant Y430A)
Ribonuclease inhibitor: MNLDIHCEQLSDARWTELLPLLQQYEVVRLDDCGLTEEHCKDIGSALRANPSLTELCLRTNELGDAGVHLVLQGLQSPTCKIQKLSLQNCSLTEAGCGVLPSTLRSLPTLRELHLSDNPLGDAGLRLLCEGLLDPQCHLEKLQLEYCRLTAASCEPLASVLRATRALKELTVSNNDIGEAGARVLGQGLADSACQLETLRLENCGLTPANCKDLCGIVASQASLRELDLGSNGLGDAGIAELCPGLLSPASRLKTLWLWECDITASGCRDLCRVLQAKETLKELSLAGNKLGDEGARLLCESLLQPGCQLESLWVKSCSLTAACCQHVSLMLTQNKHLLELQLSSNKLGDSGIQELCQALSQPGTTLRVLCLGDCEVTNSGCSSLASLLLANRSLRELDLSNNCVGDPGVLQLLGSLEQPGCALEQLVLADTYWTEEVEDRLQALEGSKPGLRVIS
B11: 1DFJ YI433A (protein, UniProt P10775 1-456, looked up, variant Y433A)
Ribonuclease inhibitor: MNLDIHCEQLSDARWTELLPLLQQYEVVRLDDCGLTEEHCKDIGSALRANPSLTELCLRTNELGDAGVHLVLQGLQSPTCKIQKLSLQNCSLTEAGCGVLPSTLRSLPTLRELHLSDNPLGDAGLRLLCEGLLDPQCHLEKLQLEYCRLTAASCEPLASVLRATRALKELTVSNNDIGEAGARVLGQGLADSACQLETLRLENCGLTPANCKDLCGIVASQASLRELDLGSNGLGDAGIAELCPGLLSPASRLKTLWLWECDITASGCRDLCRVLQAKETLKELSLAGNKLGDEGARLLCESLLQPGCQLESLWVKSCSLTAACCQHVSLMLTQNKHLLELQLSSNKLGDSGIQELCQALSQPGTTLRVLCLGDCEVTNSGCSSLASLLLANRSLRELDLSNNCVGDPGVLQLLGSLEQPGCALEQLVLYDTAWTEEVEDRLQALEGSKPGLRVIS
B12: 1DAN VU146A (protein, UniProt P13726 33-251, looked up, variant V146A)
extracellular domain: SGTTNTVAAYNLTWKSTNFKTILEWEPKPVNQVYTVQISTKSGDWKSKCFYTTDTECDLTDEIVKDVKQTYLARVFSYPAGNVESTGSAGEPLYENSPEFTPYLETNLGQPTIQSFEQVGTKVNVTVEDERTLVRRNNTFLSLRDAFGKDLIYTLYYWKSSSSGKKTAKTNTNEFLIDVDKGENYCFSVQAVIPSRTVNRKSTDSPVECMGQEKGEFRE
modifications: extracellular domain
B13: 1DAN IU152A (protein, UniProt P13726 33-251, looked up, variant I152A)
extracellular domain: SGTTNTVAAYNLTWKSTNFKTILEWEPKPVNQVYTVQISTKSGDWKSKCFYTTDTECDLTDEIVKDVKQTYLARVFSYPAGNVESTGSAGEPLYENSPEFTPYLETNLGQPTIQSFEQVGTKVNVTVEDERTLVRRNNTFLSLRDVFGKDLAYTLYYWKSSSSGKKTAKTNTNEFLIDVDKGENYCFSVQAVIPSRTVNRKSTDSPVECMGQEKGEFRE
modifications: extracellular domain
B14: 1DAN VU207A (protein, UniProt P13726 33-251, looked up, variant V207A)
extracellular domain: SGTTNTVAAYNLTWKSTNFKTILEWEPKPVNQVYTVQISTKSGDWKSKCFYTTDTECDLTDEIVKDVKQTYLARVFSYPAGNVESTGSAGEPLYENSPEFTPYLETNLGQPTIQSFEQVGTKVNVTVEDERTLVRRNNTFLSLRDVFGKDLIYTLYYWKSSSSGKKTAKTNTNEFLIDVDKGENYCFSVQAVIPSRTVNRKSTDSPAECMGQEKGEFRE
modifications: extracellular domain
B15: 1DAN VU179A (protein, UniProt P13726 33-251, looked up, variant V179A)
extracellular domain: SGTTNTVAAYNLTWKSTNFKTILEWEPKPVNQVYTVQISTKSGDWKSKCFYTTDTECDLTDEIVKDVKQTYLARVFSYPAGNVESTGSAGEPLYENSPEFTPYLETNLGQPTIQSFEQVGTKVNVTVEDERTLVRRNNTFLSLRDVFGKDLIYTLYYWKSSSSGKKTAKTNTNEFLIDADKGENYCFSVQAVIPSRTVNRKSTDSPVECMGQEKGEFRE
modifications: extracellular domain
B16: 1DAN VU198A (protein, UniProt P13726 33-251, looked up, variant V198A)
extracellular domain: SGTTNTVAAYNLTWKSTNFKTILEWEPKPVNQVYTVQISTKSGDWKSKCFYTTDTECDLTDEIVKDVKQTYLARVFSYPAGNVESTGSAGEPLYENSPEFTPYLETNLGQPTIQSFEQVGTKVNVTVEDERTLVRRNNTFLSLRDVFGKDLIYTLYYWKSSSSGKKTAKTNTNEFLIDVDKGENYCFSVQAVIPSRTANRKSTDSPVECMGQEKGEFRE
modifications: extracellular domain
B17: 1DAN YU157A (protein, UniProt P13726 33-251, looked up, variant Y157A)
extracellular domain: SGTTNTVAAYNLTWKSTNFKTILEWEPKPVNQVYTVQISTKSGDWKSKCFYTTDTECDLTDEIVKDVKQTYLARVFSYPAGNVESTGSAGEPLYENSPEFTPYLETNLGQPTIQSFEQVGTKVNVTVEDERTLVRRNNTFLSLRDVFGKDLIYTLYAWKSSSSGKKTAKTNTNEFLIDVDKGENYCFSVQAVIPSRTVNRKSTDSPVECMGQEKGEFRE
modifications: extracellular domain

Columns and labels:
[1] = system: PPIs of the SKEMPI data set (by PDBID); test: SKEMPI experimental ΔΔG, single mutations to alanine; type: binding; details: for sk_class (class of SKEMPI experimental ΔΔG): class by ΔΔG threshold 4.184 kJ/mol, ref SKEMPI; for sk_class: class of the SKEMPI experimental ΔΔG
[2] = system: PPIs of the SKEMPI data set (by PDBID); details: single mutation to alanine, sheet sortedByGroup, r_group FAMILYVW, ref SKEMPI, cited from earlier work

Row | Molecule | sk_class (class of SKEMPI experimental ΔΔG) [1] | sk_ddG_kJ (SKEMPI experimental ΔΔG) ([2]; PPI given by PDBID) [kJ] | sk_class [1] | sk_ddG_kJ (SKEMPI experimental ΔΔG) [2] [kJ]
1 | B1 | Positive (positive (a hot residue) ΔΔG ≥ 4.184 kJ/mol) | 14.31 |  | 
2 | B2 | Positive (positive (a hot residue) ΔΔG ≥ 4.184 kJ/mol) | 10.79 |  | 
3 | B3 | Positive (positive (a hot residue) ΔΔG ≥ 4.184 kJ/mol) | 20.21 |  | 
4 | B4 | Positive (positive (a hot residue) ΔΔG ≥ 4.184 kJ/mol) | 19.41 |  | 
5 | B5 | Positive (positive (a hot residue) ΔΔG ≥ 4.184 kJ/mol) | 7.78 |  | 
6 | B6 | Neutral (neutral (little effect) 4.184 kJ/mol < ΔΔG > −4.184 kJ/mol) | 3.56 |  | 
7 | B7 | Positive (positive (a hot residue) ΔΔG ≥ 4.184 kJ/mol) | 4.90 |  | 
8 | B8 |  |  | Positive (positive (a hot residue) ΔΔG ≥ 4.184 kJ/mol) | 5.56
9 | B9 |  |  | Neutral (neutral (little effect) 4.184 kJ/mol < ΔΔG > −4.184 kJ/mol) | 1.38
10 | B10 |  |  | Positive (positive (a hot residue) ΔΔG ≥ 4.184 kJ/mol) | 24.89
11 | B11 |  |  | Positive (positive (a hot residue) ΔΔG ≥ 4.184 kJ/mol) | 10.96
12 | B12 |  |  | Neutral (neutral (little effect) 4.184 kJ/mol < ΔΔG > −4.184 kJ/mol) | 0.84
13 | B13 |  |  | Neutral (neutral (little effect) 4.184 kJ/mol < ΔΔG > −4.184 kJ/mol) | 0.75
14 | B14 |  |  | Positive (positive (a hot residue) ΔΔG ≥ 4.184 kJ/mol) | 6.57
15 | B15 |  |  | Neutral (neutral (little effect) 4.184 kJ/mol < ΔΔG > −4.184 kJ/mol) | 0.46
16 | B16 |  |  | Neutral (neutral (little effect) 4.184 kJ/mol < ΔΔG > −4.184 kJ/mol) | 0.46
17 | B17 |  |  | Neutral (neutral (little effect) 4.184 kJ/mol < ΔΔG > −4.184 kJ/mol) | 0.00
